{"source": "patent US20080207503A1", "about": "“Composition and Treatment Methods for Coronary Artery Disease” (priority 2005, published 2008)", "molecules": {"B1": {"name": "bacterial sphingomyelinase: Bacterial (Bacilus cereus) sphingomyelinase from Sigma (protein, UniProt P09599 28-333, looked up)", "Sphingomyelinase C": "DTSTDQNNTLKVMTHNVYMLSTNLYPNWGQSQRADLIGAADYIKNQDVVILNEVFDNSASDRLLGNLKKEYPNQTAVLGRSNGNEWDKTLGSYSSSTPEDGGVAIVSKWPIVEKIQYVFAKGCGPDNLSNKGFVYTKIKKNDRFVHVIGTHLQAEDSMCGKTSPASVRTNQLKEIQDFIKNKNIPNDEYVLFGGDMNVNKINAENNSDSEYASMFKTLHASIPSYTGHTATWDATTNSIAKYNFPDSPAEYLDYIIASKDHANPSFIENKVLQPKSPQWTVTSWLKKYTYDDYSDHYPVAATISMK"}}, "test": "Sphingomyelinase treatment of ICP (hydrolysis of SPM, TLC, cholesterol release)", "format": "biochemical, human", "procedure": "FIG. 7A show the effect of hydrolyzing SPM on ICP by sphingomyelinase on the ICP SPM to PC ratio. Following incubation of ICP in 0.25 M Tris buffer containing 20 mM MgCl2 with 50 units of bacterial sphingomyelinase for 6 hrs at 37° C., the reaction of sphingomyelinase was stopped by adding EDTA and a subsequent wash. A change in the SPM to PC ratio of insoluble ICP was examined by TLC. SPM to PC ratios of control ICP (top) and sphingomyelinase-treated ICP (bottom) were 1.69 and 0.49, respectively.\nFIG. 7B show the effect of hydrolyzing SPM on ICP by sphingomyelinase on the release of ICP cholesterol by apo HDL or R-HDL. ICP sphingomyelinase treatment was as described in FIG. 7A. Release of cholesterol from control or sphingomyelinase-treated ICP was then measured after incubation of ICP at ICP FC to apo HDL ratio=1:2.5 or ICP FC to R-HDL PC ratio of 1:10.\nTreatment of ICP with bacterial sphingomyelinase hydrolyzed 70% of ICP SPM. […] Rather, the release of ICP cholesterol into TBS, apo HDL, or R-HDL was reduced by prior sphingomyelinase treatment of ICP (FIG. 7B). As a model of ICP, artificial multilamellar SPM vesicles enriched with FC (SPM/FC ratio=1) or containing no FC (control SPM) were incubated with R-HDL. Then, PC and SPM content in residual insoluble multilamellar SPM vesicles and solubilized vesicles were determined by TLC (FIG. 7C). After incubation of FC-enriched multilamellar SPM vesicles (SPM/FC+, FIG. 7C, lane 1) with R-HDL (lane 4), insoluble multilamellar vesicles contained not only SPM but also PC (lane 2), while the soluble fraction contained only PC (lane 3). In contrast, following incubation of FC-free multilamellar SPM vesicles (SPM/FC−, lane 5) with R-HDL (lane 8), the residual insoluble multilamellar vesicles contained SPM and no PC (lane 6), and the upper soluble fraction contained both SPM and PC (lane 7)."}
{"molecule": "B1", "values": [{"measurement": "ICP SPM hydrolyzed", "setting": "50 units bacterial sphingomyelinase, 6 hrs, 37° C.", "result": 70, "unit": "%"}, {"measurement": "release of ICP cholesterol into TBS, apo HDL or R-HDL after prior sphingomyelinase treatment (in words)", "setting": "FIG. 7B", "result": "reduced"}, {"measurement": "ICP SPM/PC ratio after sphingomyelinase treatment", "setting": "control ICP 1.69 / 1.6, TLC", "result": 0.49}]}
